From the supplement of paper PMC10724198
± gives the standard deviation of the averaged measurements.

System: Saccharomyces cerevisiae
Assay: protein stability index of tFT-peptide fusion (C-terminal peptide) (PSI (0-1 scale)); higher = more stable (slower turnover)
Details: genetic background: wild type; temperature: 30 C
Protocol: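 Multiplexed protein stability (MPS) profiling in S. cerevisiae. Random 12-aa peptides (tFT-X12 library) are fused to the C-terminus of a sfGFP-mCherry tandem fluorescent timer, after mCherry and a GGGS linker. Cells are FACS-sorted into 8 mCherry/sfGFP bins and deep-sequenced. The protein stability index (PSI) is the read-weighted bin average, scaled from 0 (unstable) to 1 (stable). Only peptides with >10 reads are reported; cells were grown at 30 °C in SC-His with glucose.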
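Note: PSI is a weighted mean of sequencing reads over stability bins, variants kept only with over 10 reads, mCherry proximal and sfGFP distal, peptide attached via GGGS linker.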

Row | Sequence | protein stability index
1 | SPPHPRPPTLRT | 0.609 ± 0.013
2 | PAGVDQPYIPGE | 0.6002 ± 0.0054
3 | RVRFRVYKGGAL | 0.661 ± 0.041
4 | RLPRHLPPAPAL | 0.679 ± 0.025
5 | SSSPTFLLSPFP | 0.721 ± 0.012
6 | HSPPPSLGPVPA | 0.6636 ± 0.0049
7 | ENRERVVENLRD | 0.715 ± 0.04
8 | PFPSPSRHSLFP | 0.723 ± 0.084
9 | DLGSFVNSGWVT | 0.706 ± 0.044
10 | LFVCVFRPWLGG | 0.766 ± 0.09
11 | SGLRFLSWSVHV | 0.6114 ± 0.0051
12 | RELKSPRCRTHR | 0.653 ± 0.12
13 | RGEGGRGRTVEG | 0.631 ± 0.077
14 | PPSLLLCPLFTS | 0.602 ± 0.075
15 | EVEINGRLVGKM | 0.646 ± 0.097
16 | SGSSRLRTSPTG | 0.814 ± 0.056
17 | VNVSLFWFGTYL | 0.61 ± 0.054
18 | WSKEQRRGGCGQ | 0.714 ± 0.015
19 | PPPASPSPSMVF | 0.693 ± 0.024
20 | VARVVGGVGGGW | 0.6553 ± 0.006
21 | GFSLGAPRPFVQ | 0.718 ± 0.039
22 | PSDLFGIQQSLL | 0.764 ± 0.018
23 | RCGRVEKRIGRV | 0.756 ± 0.086
24 | AALLQAGMPRTR | 0.692 ± 0.013
25 | IQAVSRDYVELR | 0.652 ± 0.031

Row | Sequence | protein stability index
26 | AKACHGGSTLPG | 0.609 ± 0.045
27 | APAPPPGVPPSR | 0.702 ± 0.002
28 | RNTRAVREHRNV | 0.726 ± 0.0092
29 | PSPLCDFTRSSI | 0.659 ± 0.025
30 | VFPPPLPVRRCP | 0.6551 ± 0.0031
31 | RSRCYSNIRIFI | 0.589 ± 0.048
32 | LPLPVPPPPLPS | 0.654 ± 0.034
33 | DSILCVPCVYLY | 0.629 ± 0.0084
34 | FVLISSPLLRSF | 0.623 ± 0.017
35 | ENKGKKITITNE | 0.625 ± 0.018
36 | TDCAPRGGRWKR | 0.656 ± 0.14
37 | LLRYAPSALPLP | 0.6683 ± 0.0031
38 | KKVDLEDQRKER | 0.745 ± 0.008
39 | RMKKYKYELDLN | 0.659 ± 0.019
40 | GPCPHLGLVVES | 0.703 ± 0.34
41 | VVFLWGVFGGSI | 0.688 ± 0.055
42 | PRLPSPPGAPPP | 0.726 ± 0.011
43 | VVLGLWGLCCGC | 0.527 ± 0.029
44 | REGPSPLDPSRF | 0.684 ± 0.051
45 | GPVFLPLFWAGV | 0.6846 ± 0.0051
46 | EYRPPVPPPFPP | 0.579 ± 0.033
47 | APSRTPRQPPSH | 0.716 ± 0.067
48 | GVIGPFSHDGCA | 0.662 ± 0.021
49 | KLQKKTRQKKKK | 0.653 ± 0.035
50 | KKTITNNCPSYD | 0.6638 ± 0.0066

Row | Sequence | protein stability index
51 | SMFGSVGLMPCG | 0.656 ± 0.02
52 | RAPMQPTATQAP | 0.654 ± 0.035
53 | FLIFSLSFCVLS | 0.6713 ± 0.0031
54 | RSGAAREVSGGA | 0.7546 ± 0.0052
55 | SHLAHLHPHIAR | 0.675 ± 0.026
56 | FFPATVGPFSFP | 0.731 ± 0.015
57 | SGKFVGCSFWMG | 0.62 ± 0.016
58 | LHLGHAGQACPA | 0.6277 ± 0.0022
59 | KIKNKKNKCKKK | 0.751 ± 0.14
60 | SSLFVISIPFRS | 0.639 ± 0.015
61 | IHLALYKYEVMG | 0.584 ± 0.017
62 | SVSLPPSLPFLL | 0.764 ± 0.03
63 | FVASEFEVRLWR | 0.769 ± 0.01
64 | IMNNSKIYRSVG | 0.6593 ± 0.0021
65 | WWKLSGTGWGTL | 0.73 ± 0.022
66 | WACGYLGSTILS | 0.643 ± 0.067
67 | PPLPCATLPSHS | 0.706 ± 0.013
68 | LLSAVVDHTHLQ | 0.664 ± 0.07
69 | KEGRKKKRQINT | 0.803 ± 0.076
70 | GHVRVVVRRRVI | 0.5812 ± 0.0021
71 | GSFLSAQRPCPV | 0.661 ± 0.023
72 | RQHPPLPSFPSP | 0.759 ± 0.06
73 | ETNSSSEFPLNF | 0.755 ± 0.0089
74 | LIDLLRQVNVLR | 0.649 ± 0.0096
75 | YAERNKKTLKDT | 0.638 ± 0.011

Row | Sequence | protein stability index
76 | RYRSRHHSTYVL | 0.635 ± 0.26
77 | QNKTQKSKKKKS | 0.734 ± 0.038
78 | SENVSATLNNQD | 0.708 ± 0.028
79 | GRVAGNERGGGR | 0.6083 ± 0.006
80 | CTHYFSNSCLLR | 0.604 ± 0.063
81 | KECGICGAVVGL | 0.63 ± 0.092
82 | LFSDLCRVAWSL | 0.615 ± 0.021
83 | RRGWVRWRVGAA | 0.667 ± 0.074
84 | PMHVLTKLCDGV | 0.689 ± 0.083
85 | PRLLPSTCEREV | 0.618 ± 0.066
86 | LPDVFLSSFFCL | 0.709 ± 0.027
87 | EVWGSVETSCAS | 0.739 ± 0.17
88 | RRSLDQSIQAKC | 0.643 ± 0.055
89 | YPSTESPAGLAL | 0.726 ± 0.025
90 | PPRASPFPTPPP | 0.579 ± 0.04
91 | WRQRLKTNNITT | 0.733 ± 0.018
92 | RWFTFPVPVPFC | 0.642 ± 0.036
93 | SRPSPAMFLFSP | 0.737 ± 0.1
94 | PPPPPRPPYPIP | 0.735 ± 0.011
95 | GDTKKRTQGRGV | 0.653 ± 0.011
96 | SRTAFNRGTTRD | 0.681 ± 0.044
97 | PTRAPVKPDQHP | 0.798 ± 0.072
98 | FLLTVFPPLFFP | 0.704 ± 0.011
99 | QDAPPSTPPRPL | 0.786 ± 0.15
100 | PTPMLPNYPWSR | 0.7431 ± 0.0015

Row | Sequence | protein stability index
101 | HREQSTILDLKE | 0.715 ± 0.036
102 | PPHTRTACHRAP | 0.7251 ± 0.0034
103 | SQGLALFLRPGY | 0.628 ± 0.057
104 | RGFMLGFVSRFS | 0.625 ± 0.039
105 | PPSLPPLSPPLA | 0.736 ± 0.02
106 | PFFSFGGLRFLL | 0.6621 ± 0.0053
107 | LHGHFIRLIRIG | 0.477 ± 0.054
108 | GSAGYLCQCSDI | 0.681 ± 0.017
109 | GGSVGGGTGWRM | 0.65 ± 0.022
110 | PLHPPSLPPPPT | 0.732 ± 0.032
111 | VVSIIQDITLIS | 0.7094 ± 0.0034
112 | RKKIIRDKLNTS | 0.709 ± 0.051
113 | DTYSEQRIVVTK | 0.677 ± 0.012
114 | PTTVPPGPTSVH | 0.755 ± 0.058
115 | KYMPKDSLKNTI | 0.622 ± 0.01
116 | AQSRTCPMPLPA | 0.719 ± 0.025
117 | PSLLSPTPPTTD | 0.711 ± 0.075
118 | PPPTPPRPPSPP | 0.656 ± 0.015
119 | GLCVFVNKPSIL | 0.711 ± 0.011
120 | PPPPPTPTPPYR | 0.6952 ± 0.0014
121 | YVGGGAGVLLVL | 0.623 ± 0.014
122 | GGGFRVLCVGLG | 0.627 ± 0.037
123 | RRVGSGGLEGIG | 0.528 ± 0.019
124 | PPLASFPPPPPL | 0.667 ± 0.064
125 | SLDQGRLRRLVG | 0.641 ± 0.061

Row | Sequence | protein stability index
126 | APFSALFPANSV | 0.719 ± 0.15
127 | SRFGSVSCRPSI | 0.713 ± 0.079
128 | FPGFHPIFPPPL | 0.664 ± 0.093
129 | VKSGSTALRVNS | 0.607 ± 0.051
130 | KVGLGVNSLFTG | 0.745 ± 0.18
131 | ILDSPMWQPVSM | 0.727 ± 0.056
132 | RHLVSPSTRAIS | 0.77 ± 0.15
133 | FSNSSASPPSLS | 0.664 ± 0.068
134 | PPMSYYLFPCSR | 0.699 ± 0.061
135 | FCFRFISCPLHF | 0.549 ± 0.047
136 | EGEDRVEPGTQT | 0.722 ± 0.045
137 | GGGCGMEPGCGP | 0.687 ± 0.062
138 | SLPDTSPSLHPP | 0.59 ± 0.011
139 | PPSTRPYRLFPL | 0.682 ± 0.048
140 | SPGPPLLLPPPL | 0.688 ± 0.085
141 | PPLLPRPPPLSP | 0.6677 ± 0.0037
142 | IYERTEENKRVN | 0.591 ± 0.0088
143 | KHKRKGSERKQG | 0.608 ± 0.0066
144 | APAPELRRSPTP | 0.707 ± 0.01
145 | GGAVGYRLVACD | 0.656 ± 0.11
146 | PPLASPDPPLPL | 0.66 ± 0.083
147 | YILLGEFAGVFP | 0.689 ± 0.17
148 | FLPWPSYPTPGP | 0.784 ± 0.018
149 | PLPLPYCQASPV | 0.658 ± 0.008
150 | GGGGGLRVSCGT | 0.679 ± 0.083

Row | Sequence | protein stability index
151 | GLFDLLCHCCWL | 0.702 ± 0.05
152 | PRPLALPFCKLW | 0.808 ± 0.14
153 | IDSNLCFVKSYT | 0.618 ± 0.064
154 | GGGGRWGVLVLG | 0.504 ± 0.0062
155 | SATALTANHPKM | 0.677 ± 0.0096
156 | PRPQTSAHAETG | 0.644 ± 0.022
157 | TKIKETTKKKQL | 0.522 ± 0.059
158 | GQTTVLPSIYKR | 0.673 ± 0.047
159 | VGWSWTSWTKGD | 0.661 ± 0.021
160 | GSPAVACSSPFF | 0.754 ± 0.073
161 | LGSLSPRLPSLR | 0.672 ± 0.091
162 | SPTPHPPPSPPL | 0.728 ± 0.023
163 | FFPSSPFLPPPR | 0.657 ± 0.1
164 | PLPLPVSPRPPP | 0.6807 ± 0.0063
165 | RRTAVEEWGVGG | 0.672 ± 0.12
166 | GKSTFWTELAII | 0.648 ± 0.045
167 | KTGRPSRRGSTT | 0.704 ± 0.036
168 | VLCCFLFGFLLV | 0.576 ± 0.011
169 | SSFVFGLCGGVA | 0.694 ± 0.03
170 | SCSFLISLLLLP | 0.525 ± 0.023
171 | LLFLLGTLYHPY | 0.635 ± 0.11
172 | IRLPHPPLPPSP | 0.6673 ± 0.0025
173 | LNTTKTFCSPCL | 0.692 ± 0.081
174 | CCLSGGFFLFGL | 0.622 ± 0.062
175 | FTPSSPPLPLLP | 0.655 ± 0.11

Row | Sequence | protein stability index
176 | LRLPAPPLASAC | 0.596 ± 0.006
177 | TRPCFSGFNSPF | 0.6545 ± 0.0019
178 | LGLGIWDCFCVL | 0.685 ± 0.018
179 | QPTCSLRAGPRD | 0.713 ± 0.036
180 | KKKEHQKIKNER | 0.675 ± 0.032
181 | TGEFILLFSWFV | 0.584 ± 0.0024
182 | NDRLDRRDWWEG | 0.695 ± 0.022
183 | HCFASLITSIVH | 0.535 ± 0.025
184 | PCPPNSPPLSPT | 0.71 ± 0.043
185 | EMPQNSKKNQAA | 0.672 ± 0.06
186 | TPPPPPPPLRAT | 0.638 ± 0.038
187 | PPPHSSPPPSPP | 0.693 ± 0.069
188 | PPPPPLLAPSPL | 0.671 ± 0.07
189 | TTLFLPAGYACR | 0.707 ± 0.037
190 | PTPPHPTSPPPP | 0.693 ± 0.01
191 | LRGGWVESCGGW | 0.669 ± 0.027
192 | DGGTSGGGVPVP | 0.637 ± 0.054
193 | PPRFCPPLAPSV | 0.681 ± 0.0095
194 | SSPRRRLHSLSL | 0.782 ± 0.04
195 | WGPVPWWFGWMG | 0.678 ± 0.027
196 | PRWYVSFRTDDW | 0.709 ± 0.15
